Test results reported in PMC2794717.

Target: yeast SCF^Cdc4 ubiquitin ligase (yeast) (UniProt P52286)
Sequence of UniProt P52286 (P52286 whole entry, chain 1 of 4): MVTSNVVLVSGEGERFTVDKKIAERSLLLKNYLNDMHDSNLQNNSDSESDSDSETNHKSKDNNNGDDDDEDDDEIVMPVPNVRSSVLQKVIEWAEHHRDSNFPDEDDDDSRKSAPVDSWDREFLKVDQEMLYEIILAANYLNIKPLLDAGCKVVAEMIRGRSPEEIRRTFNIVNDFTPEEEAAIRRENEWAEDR
Sequence of UniProt P52286 (Q12018 whole entry, chain 2 of 4, further chain): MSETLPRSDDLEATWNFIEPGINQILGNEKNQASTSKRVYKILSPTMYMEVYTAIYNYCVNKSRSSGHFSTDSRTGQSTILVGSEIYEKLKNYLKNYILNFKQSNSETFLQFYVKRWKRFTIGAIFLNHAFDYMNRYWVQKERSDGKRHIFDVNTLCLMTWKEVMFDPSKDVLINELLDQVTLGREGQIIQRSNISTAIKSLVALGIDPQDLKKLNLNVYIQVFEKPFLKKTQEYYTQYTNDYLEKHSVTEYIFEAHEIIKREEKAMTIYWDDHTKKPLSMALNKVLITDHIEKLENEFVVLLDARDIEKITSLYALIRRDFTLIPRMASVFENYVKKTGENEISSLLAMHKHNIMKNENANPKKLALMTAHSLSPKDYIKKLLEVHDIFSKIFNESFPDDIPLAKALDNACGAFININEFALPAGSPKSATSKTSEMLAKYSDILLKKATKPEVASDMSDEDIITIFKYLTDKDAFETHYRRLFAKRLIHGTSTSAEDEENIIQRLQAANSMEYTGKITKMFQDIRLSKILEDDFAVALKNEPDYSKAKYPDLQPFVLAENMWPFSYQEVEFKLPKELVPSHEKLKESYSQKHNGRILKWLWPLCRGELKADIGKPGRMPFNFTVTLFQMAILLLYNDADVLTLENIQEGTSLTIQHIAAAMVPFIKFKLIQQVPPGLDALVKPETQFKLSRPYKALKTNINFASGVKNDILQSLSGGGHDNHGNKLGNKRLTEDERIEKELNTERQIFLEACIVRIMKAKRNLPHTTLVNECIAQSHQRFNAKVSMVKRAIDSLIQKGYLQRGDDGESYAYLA
Sequence of UniProt P52286 (P07834 whole entry, chain 3 of 4, further chain): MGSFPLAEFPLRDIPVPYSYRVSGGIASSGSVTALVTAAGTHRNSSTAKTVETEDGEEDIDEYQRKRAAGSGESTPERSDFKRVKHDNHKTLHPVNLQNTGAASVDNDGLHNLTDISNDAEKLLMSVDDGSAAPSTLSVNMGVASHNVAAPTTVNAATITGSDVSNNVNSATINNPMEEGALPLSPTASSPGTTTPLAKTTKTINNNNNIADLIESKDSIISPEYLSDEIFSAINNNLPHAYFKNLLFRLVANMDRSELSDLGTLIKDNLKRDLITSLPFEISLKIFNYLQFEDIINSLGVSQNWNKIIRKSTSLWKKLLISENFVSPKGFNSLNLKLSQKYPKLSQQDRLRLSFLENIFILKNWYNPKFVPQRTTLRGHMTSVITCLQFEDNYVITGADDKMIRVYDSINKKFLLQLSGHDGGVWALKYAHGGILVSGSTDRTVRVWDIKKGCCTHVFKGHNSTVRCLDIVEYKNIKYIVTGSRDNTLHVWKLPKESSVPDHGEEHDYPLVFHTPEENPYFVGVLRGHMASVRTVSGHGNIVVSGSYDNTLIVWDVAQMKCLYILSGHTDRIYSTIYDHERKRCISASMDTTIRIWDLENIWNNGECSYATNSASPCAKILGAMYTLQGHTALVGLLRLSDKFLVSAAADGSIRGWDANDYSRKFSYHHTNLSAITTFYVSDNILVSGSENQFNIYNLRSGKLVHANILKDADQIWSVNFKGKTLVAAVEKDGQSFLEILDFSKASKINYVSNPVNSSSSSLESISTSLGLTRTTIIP
Sequence of UniProt P52286 (Q08273 whole entry, chain 4 of 4, further chain): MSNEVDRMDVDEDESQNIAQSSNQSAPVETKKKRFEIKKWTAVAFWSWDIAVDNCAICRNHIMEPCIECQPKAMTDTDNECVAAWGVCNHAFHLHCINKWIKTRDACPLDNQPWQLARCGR

fold increase in Km in Sic1 ubiquitylation reactions, against Cdc34-Δ230: 3 fold
B1: yeast Cdc34-Δ220 (domain or fragment)
chain: MSSRKSTASSLLLRQYRELTDPKKAIPSFHIELEDDSNIFTWNIGVMVLNEDSIYHGGFFKAQMRFPEDFPFSPPQFRFTPAIYHPNVYRDGRLCISILHQSGDPMTDEPDAETWSPVQTVESVLISIVSLLEDPNINSPANVDAAVDYRKNPEQYKQRVKMEVERSKQDIPKGFIMPTSESAYISQSKLDEPESNKDMADNFWYDSDLDDDENGSVILQ
